Test results: PMC3458539 (Nucleic Acids Research, 2012)
Numbering of substitutions follows the chain as printed.

What was measured:
native MS = target: the molecule itself; experiment: native MS
SEC = target: the molecule itself; experiment: SEC

B1: Vibrio cholerae Hfq (wild-type) (natural protein)
chain: MAKGQSLQDPFLNALRRERIPVSIYLVNGIKLQGQIESFDQFVILLKNTVNQMVYKHAISTVVPARPVSHHSGDRPASDRPAEKSEE
- stoichiometry N (native MS): 6

B2: VcHfqY25D (distal face RNA-binding mutant of Vibrio cholerae Hfq) (natural protein)
chain: B1 chain with Y25D
- stoichiometry N (SEC): 6

B3: VcHfqK56A (proximal face RNA-binding mutant of Vibrio cholerae Hfq) (natural protein)
chain: B1 chain with K56A
- stoichiometry N (SEC): 6
